# In the supplement of paper PMC9170038:
# System: MS2 coat protein
# Test: apparent KD of MS2 coat protein; designed switch direction (-1 OFF switch, 1 ON switch): 1; higher = weaker reporter binding
# Outline: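 Designed RNA switches with common flanks were made on Illumina chips by stalled E. coli RNA polymerase. Titration with SNAP-549-labelled MS2 coat protein doubled from 0.7 or 1.5 nM up to 3 µM. Apparent KD is each design's median over clusters after curve-fitting normalised fluorescence.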
# [1] = Eterna round: R95, input ligand: FMN 200 uM
# [2] = Eterna round: R95, input ligand: microRNA oligo, concentration not stated
# [3] = Eterna round: R95, input ligand: none
# [4] = input ligand: microRNA oligo, concentration not stated
sequence,measurement,setting,value
AGUCCAGCGAAAGCUGGACAAAAGCAUGUACAUGAGGAUCACCCAUGUUCAUGUACAAGCUUUUUGCUCGUCUUAAA [Zipper 52 - 13] (puzzle: Sensor for hsa-mir-208a),apparent KD of MS2 coat protein,[1],486 nM
same,apparent KD of MS2 coat protein,[2],16.2 nM
same,apparent KD of MS2 coat protein,[3],588 nM
AGUCCAGCGAAAGCUGGACAAAAGCAUGUACAUGAGGAUCACCCAUGUUUAUGUACAAGCUUUUUGCUCGUUUUAAA [JL mod - D95 - 16] (puzzle: Sensor for hsa-mir-208a),apparent KD of MS2 coat protein,[1],365 nM
same,apparent KD of MS2 coat protein,[2],13.1 nM
same,apparent KD of MS2 coat protein,[3],433 nM
"AGUCCUGCCUGAGCAGGACAAAAGCAUGUACAUGAGGAUCACCCAUGUCAUGUACAAGCUUUUUGCUCGUCUUAAUA [Mat - hsa-mir-208a - Mod of JL - D41] (Eterna round: R96, puzzle: Sensor for hsa-mir-208a)",apparent KD of MS2 coat protein,input ligand: FMN 200 uM,624 nM
same,apparent KD of MS2 coat protein,[4],13.7 nM
same,apparent KD of MS2 coat protein,input ligand: none,735 nM
AGUCCUGCCUGAGCAGGACAAAAGCAUGUACAUGAGGAUCACCCAUGUCAUGUACAAGCUUUUUGCUCGUCUUAAUA [Mat - hsa-mir-208a - Mod of JL - D41] (puzzle: Sensor for hsa-mir-208a),apparent KD of MS2 coat protein,[1],556 nM
same,apparent KD of MS2 coat protein,[2],15.4 nM
same,apparent KD of MS2 coat protein,[3],854 nM
AGUGAACAUGAGGAUCACCCAUGUGAGAGAAGUGUAGGAUAUGUGAGAGGCGGAGGAGGGACAGAAGGACAUGGAG [JR_SS!_Sub075] (puzzle: Same State 1),apparent KD of MS2 coat protein,[1],38.7 nM
same,apparent KD of MS2 coat protein,[2],42 nM
same,apparent KD of MS2 coat protein,[3],48.5 nM
AGUGAACAUGAGGAUCACCCAUGUGAGAGAAGUGUAGGAUAUGUGAGGAGCAGAGGAGGAACAGAAGGACAUGGAG [JR_SS!_Sub073] (puzzle: Same State 1),apparent KD of MS2 coat protein,[1],29 nM
same,apparent KD of MS2 coat protein,[2],36.8 nM
same,apparent KD of MS2 coat protein,[3],48.5 nM
AGUGAAGAAGCUGAGGAUAUCGUAAGGAGGACAUGAGGAUCACCCAUGUGUGUGGAAUUGGAGGACGAGAAGGCAGAGGAGUGGG [JR_SS2_Sub057] (puzzle: Same State 2),apparent KD of MS2 coat protein,[1],39.3 nM
same,apparent KD of MS2 coat protein,[2],42.6 nM
same,apparent KD of MS2 coat protein,[3],22.7 nM
"AGUUGUAAUACAGGAUAUAUAUUAUUUUUAUUUAUAGAAGGGUAAUCACAUGAGGAUCACCCAUGUAUAUACGAGGAAGAAGAG [JMF's solution 2] (Eterna round: R96, puzzle: Same State NG 1)",apparent KD of MS2 coat protein,[4],194 nM
AGUUGUGGAAAACUAUAGCAAAAGUAUGUACAUGAGGAUCACCCAUGUCAUGUACAAGCUUUUUGCUCGUCUUAAAA [ak 4 mod of one Eli's designs.] (puzzle: Sensor for hsa-mir-208a),apparent KD of MS2 coat protein,[1],23 nM
same,apparent KD of MS2 coat protein,[2],21 nM
same,apparent KD of MS2 coat protein,[3],23.3 nM
"AUAAAACACAUGAGGAUCACCCAUGUGGCCGAAGAAGGCACACAGGAUAUCAAGCAACUAAAGCUUGAGAAGGGUGAGACAAAA [Quistera] (Eterna round: R96, puzzle: Same State NG 3)",apparent KD of MS2 coat protein,input ligand: FMN 200 uM,494 nM
same,apparent KD of MS2 coat protein,[4],30.7 nM
same,apparent KD of MS2 coat protein,input ligand: none,92.3 nM
"AUAAAACAUGAGGAUCACCCAUGUAGACGGAGAAACGUCACAUAGGAUAUAGUCAGCGGCGUUGACUAGAAGGGUGGUAGAAAA [Qubeedbi] (Eterna round: R96, puzzle: Same State NG 3)",apparent KD of MS2 coat protein,input ligand: FMN 200 uM,286 nM
same,apparent KD of MS2 coat protein,[4],97.4 nM
same,apparent KD of MS2 coat protein,input ligand: none,251 nM
AUAAAACAUGAGGAUCACCCAUGUCAACAAAGAUGAGGAUAUGUACAGACUUCGGUCUGUACAGAAGGCAUAUAAU [salish99_ss1_r3_099] (puzzle: Same State 1),apparent KD of MS2 coat protein,[1],15.4 nM
same,apparent KD of MS2 coat protein,[2],15.2 nM
same,apparent KD of MS2 coat protein,[3],13.9 nM
"AUAAAACAUGAGGAUCACCCAUGUCAACAAAGUCGAGGAUAUGGGCAAAUAAAAUAAGAACCAGAAGGCGAAUAAC [salish99_SS1_r3_003] (Eterna round: R96, puzzle: Same State 1)",apparent KD of MS2 coat protein,input ligand: FMN 200 uM,39.7 nM
same,apparent KD of MS2 coat protein,[4],215 nM
same,apparent KD of MS2 coat protein,input ligand: none,282 nM
AUAAAACAUGAGGAUCACCCAUGUCAACAAAGUCGAGGAUAUGGGCAAAUAAAAUAAGAACCAGAAGGCGAAUAAC [salish99_SS1_r3_003] (puzzle: Same State 1),apparent KD of MS2 coat protein,[2],339 nM
AUAAAACAUGAGGAUCACCCAUGUCAACAAAGUCGAGGAUAUGGGCAAAUAUAAUAAGAACCAGAAGGCGAAUAAU [salish99_ss1_r3_023] (puzzle: Same State 1),apparent KD of MS2 coat protein,[1],36.1 nM
same,apparent KD of MS2 coat protein,[2],204 nM
same,apparent KD of MS2 coat protein,[3],336 nM
AUAAAACAUGAGGAUCACCCAUGUCAACAUAGUCGAGGAUAUGGGCAAAUAAAAUAAGAACCAGAAGGCGAAUAAU [salish99_ss1_r3_040] (puzzle: Same State 1),apparent KD of MS2 coat protein,[1],50.5 nM
same,apparent KD of MS2 coat protein,[2],714 nM
same,apparent KD of MS2 coat protein,[3],510 nM
AUAAGGCAAGCUUUUUUCUCGUAGUGUAAACAUGAGGAUCACCCAUGUGCCCACCCUGGAUCUUUGGAUCGCAAAAC [Ceatgeor] (puzzle: Sensor for hsa-mir-208a),apparent KD of MS2 coat protein,[1],23.9 nM
same,apparent KD of MS2 coat protein,[2],18.6 nM
same,apparent KD of MS2 coat protein,[3],23.7 nM
AUAAGGCAAGCUUUUUUCUCGUUGUGUAAACAUGAGGAUCACCCAUGUGCCCACCCUGGAUCUUUGGAUCGCAGAAC [Mais] (puzzle: Sensor for hsa-mir-208a),apparent KD of MS2 coat protein,[1],40.8 nM
same,apparent KD of MS2 coat protein,[2],17.5 nM
same,apparent KD of MS2 coat protein,[3],40.8 nM
AUAAGUUUGAUGCUCGUCUCUCCGUACAGACAUGAGGAUCACCCAUGUAGUCGGGCAGUAGCCCGGCCAGUAUGGCC [Raatbeor] (puzzle: Sensor for hsa-mir-208a),apparent KD of MS2 coat protein,[1],103 nM
same,apparent KD of MS2 coat protein,[2],28.8 nM
same,apparent KD of MS2 coat protein,[3],119 nM
"AUACUCAUGUAAGGAUAUGCAGCCGAAACGGCUGCAGAAGGUACUAUAAUACAUGAGGAUCACCCAUGUCAAAAUUAUUUAGUU [Mat - Same State NG 1 - JL mod - D99] (Eterna round: R96, puzzle: Same State NG 1)",apparent KD of MS2 coat protein,input ligand: FMN 200 uM,19.5 nM
same,apparent KD of MS2 coat protein,[4],21.9 nM
same,apparent KD of MS2 coat protein,input ligand: none,22.3 nM
"AUACUCAUGUAAGGAUAUGCAGCCGUUUCGGCUGCAGAAGGUACUAUAAUACAUGAGGAUCACCCAUGUCUCUCGCAUUGCGAG [JL SSNG1 1.47] (Eterna round: R96, puzzle: Same State NG 1)",apparent KD of MS2 coat protein,[4],49.2 nM
"AUAGUUGCCGAAGGAUAUGAUGAGGAUCACCCAUCAGAAGGUUGGCUAUUGGGCUGACAUGAGGAUCACCCAUGUUUCGGUGUU (Eterna round: R96, puzzle: Same State NG 1)",apparent KD of MS2 coat protein,input ligand: FMN 200 uM,19.2 nM
same,apparent KD of MS2 coat protein,[4],17.1 nM
same,apparent KD of MS2 coat protein,input ligand: none,29.1 nM
"AUAGUUGCUGAAGGAUAUGAUGAGGAUCACCCAUCAGAAGGUUGGCUAUUGGGUGGACAUGAGGAUCACCCGUGUUCUUUGGUA (Eterna round: R96, puzzle: Same State NG 1)",apparent KD of MS2 coat protein,input ligand: FMN 200 uM,48.6 nM
same,apparent KD of MS2 coat protein,[4],59.1 nM
same,apparent KD of MS2 coat protein,input ligand: none,82.4 nM
AUCCUACAUGAGGAUCACCCAUGUGAAGCCUCAAUAGGAUAUGCGUGUGCCUUGGCGCAUGCAGAAGGAUUGAAGC [JL Aveso mod 3] (puzzle: Same State 1),apparent KD of MS2 coat protein,[1],91 nM
same,apparent KD of MS2 coat protein,[2],311 nM
same,apparent KD of MS2 coat protein,[3],967 nM
"AUGAAGAAUUAAGGAUAUUGAUUACAUAUGUUUAACAUGAGGAUCACCCAUGUGGGUUGCGGUAUCGAGAAGGUAAAAUAAAAG [Mat - same State NG 2 - JL mod - D89] (Eterna round: R96, puzzle: Same State NG 2)",apparent KD of MS2 coat protein,input ligand: FMN 200 uM,252 nM
same,apparent KD of MS2 coat protein,[4],193 nM
same,apparent KD of MS2 coat protein,input ligand: none,213 nM
"AUGAUAUACUCAGGAUAUAUGCGAGACGACGAGAUAGAAGGGAGAAGAUAAUGACGUACAUGAGGAUCACCCAUGUGAGGAUCA [Same State NG1 S4] (Eterna round: R96, puzzle: Same State NG 1)",apparent KD of MS2 coat protein,input ligand: FMN 200 uM,26.9 nM
same,apparent KD of MS2 coat protein,[4],20.6 nM
same,apparent KD of MS2 coat protein,input ligand: none,34 nM
"AUGGGCAUGCUAGGAUAUUAUAGUAGGCAGCAAUGAGAAGGAGUAUCCCGUUGCUAUCACGCACCACAUGAGGAUCACCCAUGU [Eternabot solution 32] (Eterna round: R96, puzzle: Same State NG 1)",apparent KD of MS2 coat protein,input ligand: FMN 200 uM,24.9 nM
same,apparent KD of MS2 coat protein,[4],19.5 nM
same,apparent KD of MS2 coat protein,input ligand: none,28.3 nM
"AUGUAUCGCCUCGAGGAUAUCCUGUCAUGCACAUGAGGAUCACCCAUGUAAGAGCGAGUUUAAUGGGAGAAGGCGAGUUCUCGGU [JR_SS002_Sub1707] (Eterna round: R96, puzzle: Same State 2)",apparent KD of MS2 coat protein,input ligand: FMN 200 uM,46.9 nM
same,apparent KD of MS2 coat protein,[4],78.5 nM
same,apparent KD of MS2 coat protein,input ligand: none,106 nM
AUUAAACAUGAGGAUCACCCAUGUAAUAAUAUGGGAGGAUAUGCGAAUUUAAUUAUUUAAGCAGAAGGCCUAAUUA [Mat - Same State 1 - D100] (puzzle: Same State 1),apparent KD of MS2 coat protein,[2],56 nM
